We go through 9 molecules from patent publication US20230416335A1.

The target in assay [1] is … (SEQ ID NO: 1)-HLA-A*02 complex (human). Description: cell-based or functional assay.
Assay [2] has the same target. Briefly: SPR (BIAcore) or BLI (Octet) per Example 3, immobilised biotinylated pHLA, 25 C. (SPR reads the build-up and loss of mass on a sensor chip optically.)

B1: ImmTAC molecule a79b64 (TCR-anti-CD3 fusion) (TCR, part only; not given: anti-CD3 scFv, linker, constant regions, not shown: a dimerising Fc or GST)
TCR alpha, part: GDAKTTQPNSMESNEEEPVHLPCNHSTISGTDYIHWYRQLPSQGPEYVIHGLTSNVNNRMASLAIAEDRKSSTLILHRATLRDAAVYYCILILGHSRLGNYIATFGKGTKLSVIP
TCR beta, part: DGGITQSPKYLFRKEGQNVTLSCEQNLNHDAMYWYRQDPGQGLRLIYYSQIMNDEQKGDIAEGYSVSREKKESFPLTVTSAQKNPTAFYLCASSWWTGGSAPIRFGPGTRLTVT
As a reminder, the Kd is the free concentration of one partner at which half of the binding sites on the other are occupied at equilibrium, for simple one-to-one binding. As for B1, the EC50 (mel624), IFN-γ ELISPOT, T cell activation in assay [1] stood at 0.0275 nM. In addition, in assay [2], the Kd was determined as 0.138 nM and the t1/2 worked out at 6.38 h.

B2: ImmTAC molecule a79b76 (TCR-anti-CD3 fusion) (TCR, part only; not given: anti-CD3 scFv, linker, constant regions, not shown: a dimerising Fc or GST)
TCR alpha, part: GDAKTTQPNSMESNEEEPVHLPCNHSTISGTDYIHWYRQLPSQGPEYVIHGLTSNVNNRMASLAIAEDRKSSTLILHRATLRDAAVYYCILILGHSRLGNYIATFGKGTKLSVIP
TCR beta, part: DGGITQSPKYLFRKEGQNVTLSCEQNLNHDAMYWYRQDPGQGLRLIYYSQIMGDEQKGDIAEGYSVSREKKESFPLTVTSAQKNPTAFYLCASSWWTGGSSPIRFGPGTRLTVT
Take B2: in assay [1], the EC50 (mel624), IFN-γ ELISPOT, T cell activation amounted to 0.0172 nM. In assay [2], the Kd was determined as 0.0118 nM and the t1/2 amounted to 58.3 h.

B3: ImmTAC molecule a28b58 (TCR-anti-CD3 fusion) (TCR, part only; not given: anti-CD3 scFv, linker, constant regions, not shown: a dimerising Fc or GST)
TCR alpha, part: GDAKTTQPNSMESNEEEPVHLPCNHSTISGTDYIHWYRQLPSQGPEYVIHGLTSNVNNRMASLAIAEDRKSSTLILHRATLRDAAVYYCILILGHSRAGNYIATFGKGTKLSVIP
TCR beta, part: DGGITQSPKYLFRKEGQNVTLSCEQNLNHDAMYWYRQDPGQGLRLIYYSQIMGDEQKGDIAEGYSVSREKKESFPLTVTSAQKNPTAFYLCASSWWTGGSSPISFGPGTRLTVT
With B3, the EC50 (mel624), IFN-γ ELISPOT, T cell activation in assay [1] was determined as 0.012 nM. Moreover, in assay [2], the Kd came out at 0.079 nM and the t1/2 was determined as 8.9 h.

B4: ImmTAC molecule a28b57 (TCR-anti-CD3 fusion) (TCR, part only; not given: anti-CD3 scFv, linker, constant regions, not shown: a dimerising Fc or GST)
TCR alpha, part: GDAKTTQPNSMESNEEEPVHLPCNHSTISGTDYIHWYRQLPSQGPEYVIHGLTSNVNNRMASLAIAEDRKSSTLILHRATLRDAAVYYCILILGHSRAGNYIATFGKGTKLSVIP
TCR beta, part: DGGITQSPKYLFRKEGQNVTLSCEQNLNHDAMYWYRQDPGQGLRLIYYSQIMGDEQKGDIAEGYSVSREKKESFPLTVTSAQKNPTAFYLCASSWWTSGASPISFGPGTRLTVT
With B4, the EC50 (mel624), IFN-γ ELISPOT, T cell activation in assay [1] is 0.0134 nM. Also, in assay [2], the Kd turned out to be 0.083 nM and the t1/2 was 8.3 h.

B5: ImmTAC molecule a79b74 (TCR-anti-CD3 fusion) (TCR, part only; not given: anti-CD3 scFv, linker, constant regions, part only)
TCR alpha, part: GDAKTTQPNSMESNEEEPVHLPCNHSTISGTDYIHWYRQLPSQGPEYVIHGLTSNVNNRMASLAIAEDRKSSTLILHRATLRDAAVYYCILILGHSRLGNYIATFGKGTKLSVIP
TCR beta, part: DGGITQSPKYLFRKEGQNVTLSCEQNLNHDAMYWYRQDPGQGLRLIYYSQIMGDEQKGDIAEGYSVSREKKESFPLTVTSAQKNPTAFYLCASSWWTGGASPIRFGPGTRLTVT
B5: the EC50 (mel624), IFN-γ ELISPOT, T cell activation in assay [1] came out at 0.00955 nM. Further, in assay [2], the Kd amounted to 0.0533 nM and the t1/2 is 12.5 h.

B6: ImmTAC molecule a79b77 (TCR-anti-CD3 fusion) (TCR, part only; not given: anti-CD3 scFv, linker, constant regions, not shown: a dimerising Fc or GST)
TCR alpha, part: GDAKTTQPNSMESNEEEPVHLPCNHSTISGTDYIHWYRQLPSQGPEYVIHGLTSNVNNRMASLAIAEDRKSSTLILHRATLRDAAVYYCILILGHSRLGNYIATFGKGTKLSVIP
TCR beta, part: DGGITQSPKYLFRKEGQNVTLSCEQNLNHDAMYWYRQDPGQGLRLIYYSQIMGDEQKGDIAEGYSVSREKKESFPLTVTSAQKNPTAFYLCASSWWTGGAAPIRFGPGTRLTVT
For B6, in assay [1], the EC50 (mel624), IFN-γ ELISPOT, T cell activation came out at 0.0138 nM. In addition, in assay [2], the Kd stood at 0.0779 nM and the t1/2 was 8.6 h.

B7: ImmTAC molecule a109b46 (TCR-anti-CD3 fusion) (TCR, part only; not given: anti-CD3 scFv, linker, constant regions, not shown: a dimerising Fc or GST)
TCR alpha, part: GDAKTTQPNSMESNEEEPVHLPCNHSTISGTDYIHWYRQLPSQGPEYVIHGLTSNVNNRMASLAIAEDRKSSTLILHRATLRDAAVYYCILILGHSRLGNYQATFGKGTKLSVIP
TCR beta, part: DGGITQSPKYLFRKEGQNVTLSCEQNLNHDAMYWYRQDPGQGLRLIYYSQIMGDEQKGDIAEGYSVSREKKESFPLTVTSAQKNPTAFYLCASSWWTGGSAPIRFGPGTRLTVT
B7 returned an EC50 (mel624), IFN-γ ELISPOT, T cell activation in assay [1] of 0.0601 nM. In assay [2], the Kd came out at 0.17 nM and the t1/2 was 7.31 h.

B8: ImmTAC molecule a28b74 (TCR-anti-CD3 fusion) (TCR, part only; not given: anti-CD3 scFv, linker, constant regions, not shown: a dimerising Fc or GST)
TCR alpha, part: GDAKTTQPNSMESNEEEPVHLPCNHSTISGTDYIHWYRQLPSQGPEYVIHGLTSNVNNRMASLAIAEDRKSSTLILHRATLRDAAVYYCILILGHSRAGNYIATFGKGTKLSVIP
TCR beta, part: DGGITQSPKYLFRKEGQNVTLSCEQNLNHDAMYWYRQDPGQGLRLIYYSQIMGDEQKGDIAEGYSVSREKKESFPLTVTSAQKNPTAFYLCASSWWTGGASPIRFGPGTRLTVT
Regarding B8, the EC50 (mel624), IFN-γ ELISPOT, T cell activation in assay [1] amounted to 0.0243 nM. In assay [2], this molecule registered a Kd of 0.182 nM and a t1/2 of 3.7 h.

B9: ImmTAC molecule a79b71 (TCR-anti-CD3 fusion) (TCR, part only; not given: anti-CD3 scFv, linker, constant regions, not shown: a dimerising Fc or GST)
TCR alpha, part: GDAKTTQPNSMESNEEEPVHLPCNHSTISGTDYIHWYRQLPSQGPEYVIHGLTSNVNNRMASLAIAEDRKSSTLILHRATLRDAAVYYCILILGHSRLGNYIATFGKGTKLSVIP
TCR beta, part: DGGITQSPKYLFRKEGQNVTLSCEQNLNHDAMYWYRQDPGQGLRLIYYSQIMGDEQKGDIAEGYSVSREKKESFPLTVTSAQKNPTAFYLCASSWWTGGSAPIYFGPGTRLTVT
B9 returned an EC50 (mel624), IFN-γ ELISPOT, T cell activation in assay [1] of 0.0318 nM. For the same molecule, in assay [2], the Kd amounted to 0.087 nM and the t1/2 stood at 14.9 h.
